Experimental data published in publication PMC9482650, “Quantitative fragmentomics allow affinity mapping of interactomes” (Nature Communications, 2022).

T1: DFNB31_3, Q9P202
T1 sequence (Q9P202 811-907, limits assumed, looked up): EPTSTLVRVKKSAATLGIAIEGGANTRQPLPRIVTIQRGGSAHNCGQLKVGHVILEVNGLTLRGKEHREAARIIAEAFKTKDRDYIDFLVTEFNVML

B1: HPV33-E6_-2P, P06427 (peptide)
chain: SRSRRRETAL
B2: TNRC6B, Q9UPQ9 (peptide)
chain: DLLGGGSDSI
B3: NEB, P20929 (peptide)
chain: MLPANYVEAI
B4: SLC1A7, O00341 (peptide)
chain: IQISELETNV
B5: LPAR1, Q92633 (peptide)
chain: GVHSNDHSVV
B6: TYRP1, P17643 (peptide)
chain: KLQNPNQSVV
B7: SLC2A3, P11169 (peptide)
chain: EPAKETTTNV
B8: FZD1, Q9UP38 (peptide)
chain: TNSKQGETTV
B9: PRKN, O60260 (peptide)
chain: VCMGDHWFDV
B10: WWTR1, Q9GZV5 (peptide)
chain: NKSEPFLTWL
B11: JAM2, P57087 (peptide)
chain: DFKHTKSFII
B12: IGSF5, Q9NSI5 (peptide)
chain: PEKVSNTTVV
B13: CXCR1, P25024 (peptide)
chain: SSSVNVSSNL
B14: CACNA1D, Q01668 (peptide)
chain: ADEMICITTL
B15: CLDN20, P56880 (peptide)
chain: NSTHNLKDYV
B16: FCHSD2, O94868 (peptide)
chain: KIEDVEITLV
B17: CSPG4, Q6UVK1 (peptide)
chain: PALKNGQYWV
B18: GRM5, P41594 (peptide)
chain: RDYTQSSSSL
B19: DUSP5, Q16690 (peptide)
chain: RSPVATATSC
B20: SIPA1, Q96FS4 (peptide)
chain: QLGSPTADLA
B21: SLC5A12, Q1EHB4 (peptide)
chain: NNMAFETTHF
B22: KCNB1, Q14721 (peptide)
chain: AHGSTRDQSI
B23: TYRO3, Q06418 (peptide)
chain: QQGLLPHSSC
B24: SLCO1B1, Q9Y6L6 (peptide)
chain: SAGADSETHC
B25: FAM71C, Q8NEG0 (peptide)
chain: STYCDYTIEI
B26: CAPN6, Q9Y6Q1 (peptide)
chain: VISSDDLTEL
B27: PTH1R, Q03431 (peptide)
chain: LLQEEWETVM
B28: CLDN7, O95471 (peptide)
chain: PKSNSSKEYV
B29: FAM167B, Q9BTA0 (peptide)
chain: NISARRFTLC
B30: GRID2, O43424 (peptide)
chain: GNDPDRGTSI
B31: GRK6, P43250 (peptide)
chain: DSEEELPTRL
B32: HDAC7, Q8WUI4 (peptide)
chain: LVEEEEPMNL
B33: CLDN10, P78369 (peptide)
chain: SKQFDKNAYV
B34: KCNJ9, Q92806 (peptide)
chain: LPPPESESKV
B35: TMEM178B, H3BS89 (peptide)
chain: KSRPENGTVC
B36: SLCO2B1, O94956 (peptide)
chain: PGKKPEDSRV
B37: POLR1D, P0DPB6 (peptide)
chain: QKASRNESTF
B38: SLC22A3, O75751 (peptide)
chain: KKTPVSRSHL
B39: ZNF599, Q96NL3 (peptide)
chain: THHRKIHTRV
B40: GJC1, P36383 (peptide)
chain: SGDGKTSVWI
B41: SLC26A3, P40879 (peptide)
chain: VYEVPVETKF
B42: NRXN3, Q9HDB5 (peptide)
chain: QKNKDREYYV
B43: SLC9A3, P48764 (peptide)
chain: PAALPESTHM
B44: DFNB31, Q9P202 (peptide)
chain: FLVTEFNVML
B45: JAM1, Q9Y624 (peptide)
chain: EFKQTSSFLV
B46: PRLHR, P49683 (peptide)
chain: GQNMTVSVVI
B47: SCN4B, Q8IWT1 (peptide)
chain: KAEEKPPSKV
B48: TRPM1, Q7Z4N2 (peptide)
chain: KEKASTETEC
B49: KCNA6, P17658 (peptide)
chain: YAEKRMLTEV
B50: GUCY1A2, P33402 (peptide)
chain: GTMFLRETSL
B51: CTNND2, Q9UQB3 (peptide)
chain: HYPASPDSWV
B52: ATRNL1, Q5VV63 (peptide)
chain: HLSTRQGTCV
B53: TMEM178A, Q8NBL3 (peptide)
chain: QLKSGRDSTV
B54: SLC17A1, Q14916 (peptide)
chain: WAKEKQHTRL
B55: KIT, P10721 (peptide)
chain: SQPLLVHDDV
B56: LRRC4, Q9HBW1 (peptide)
chain: TKDKVQETQI
B57: SEMA4F, O95754 (peptide)
chain: PLATCDETSI
B58: EGLN1, Q9GZT9 (peptide)
chain: PSDSVGKDVF
B59: CD46, P15529 (peptide)
chain: THREVKFTSL
B60: SDC3, O75056 (peptide)
chain: KPDKQEEFYA
B61: SORCS3, Q9UPU3 (peptide)
chain: TKEIPNCTSV
B62: GAS2L2, Q8NHY3 (peptide)
chain: PLPPEEESWV
B63: SLC15A2, Q16348 (peptide)
chain: IKLETKKTKL
B64: CDK18, Q07002 (peptide)
chain: RGKNRRQSIF
B65: TBPL1, P62380 (peptide)
chain: FVFESRKEIL
B66: SLC22A11, Q9NSA0 (peptide)
chain: EAVTVESTSL
B67: PALLS, Q8WX93;Q8WX93-1 (peptide)
chain: NTALVESEDL
B68: RCN2, Q14257 (peptide)
chain: HDDYFYHDEL
B69: PLCB2, Q00722 (peptide)
chain: AKADAQESRL
B70: CD226, Q15762 (peptide)
chain: TFSRRPKTRV
B71: ADRA1D, P25100 (peptide)
chain: DYSNLRETDI
B72: CCL24, O00175 (peptide)
chain: QRYPGNQTTC
B73: NPSR1, Q6W5P4 (peptide)
chain: MQILSKPEFI

Target: T1, DFNB31_3, Q9P202
Assay: holdup assay
Parameters: key: below the threshold = too weak to quantify, mostly under pKd 3.1 to 4
Conditions: modified: phospho on T at position -2 from the C-terminal residue

Binder	pKd
B1	4.02

Same assay, conditions: plain residues with an end cap or a label only (N-terminal biotin on a linker: ado-ado)

Binder	pKd
B2	4.01
B3	below the threshold
B4	below the threshold
B5	below the threshold
B6	below the threshold
B7	4.05
B8	4.06
B9	3.54
B10	5.34
B11	3.71
B12	3.83
B13	4.18
B14	4.89
B15	below the threshold
B16	4.79
B17	below the threshold
B18	below the threshold
B19	below the threshold
B20	3.55
B21	3.78
B22	3.77
B23	4.21
B24	3.55
B25	3.86

Binder	pKd
B26	4
B27	4.17
B28	below the threshold
B29	3.99
B30	below the threshold
B31	3.53
B32	3.94
B33	below the threshold
B34	below the threshold
B35	3.99
B36	below the threshold
B37	below the threshold
B38	below the threshold
B39	below the threshold
B40	below the threshold
B41	3.94
B42	3.97
B43	below the threshold
B44	below the threshold
B45	3.93
B46	4.21
B47	below the threshold
B48	3.64
B49	4.15

Binder	pKd
B50	3.5
B51	below the threshold
B52	below the threshold
B53	below the threshold
B54	below the threshold
B55	below the threshold
B56	4.11
B57	3.7
B58	below the threshold
B59	3.85
B60	3.49
B61	4.05
B62	3.99
B63	4.16
B64	3.65
B65	below the threshold
B66	below the threshold
B67	below the threshold
B68	below the threshold
B69	below the threshold
B70	below the threshold
B71	3.91
B72	below the threshold
B73	below the threshold
